Measured values: patent publication US20130084292A1

Biological target: Gp96 receptor (heat shock protein 90 kDa beta (Grp94 or Gp96), member 1 [Homo sapiens]) (Homo sapiens) (UniProt P14625)
Assay: cell-based or functional assay

Sequence of Gp96 receptor (heat shock protein 90 kDa beta (Grp94 or Gp96), member 1 [Homo sapiens]) (Homo sapiens) (P14625 22-803 limits assumed): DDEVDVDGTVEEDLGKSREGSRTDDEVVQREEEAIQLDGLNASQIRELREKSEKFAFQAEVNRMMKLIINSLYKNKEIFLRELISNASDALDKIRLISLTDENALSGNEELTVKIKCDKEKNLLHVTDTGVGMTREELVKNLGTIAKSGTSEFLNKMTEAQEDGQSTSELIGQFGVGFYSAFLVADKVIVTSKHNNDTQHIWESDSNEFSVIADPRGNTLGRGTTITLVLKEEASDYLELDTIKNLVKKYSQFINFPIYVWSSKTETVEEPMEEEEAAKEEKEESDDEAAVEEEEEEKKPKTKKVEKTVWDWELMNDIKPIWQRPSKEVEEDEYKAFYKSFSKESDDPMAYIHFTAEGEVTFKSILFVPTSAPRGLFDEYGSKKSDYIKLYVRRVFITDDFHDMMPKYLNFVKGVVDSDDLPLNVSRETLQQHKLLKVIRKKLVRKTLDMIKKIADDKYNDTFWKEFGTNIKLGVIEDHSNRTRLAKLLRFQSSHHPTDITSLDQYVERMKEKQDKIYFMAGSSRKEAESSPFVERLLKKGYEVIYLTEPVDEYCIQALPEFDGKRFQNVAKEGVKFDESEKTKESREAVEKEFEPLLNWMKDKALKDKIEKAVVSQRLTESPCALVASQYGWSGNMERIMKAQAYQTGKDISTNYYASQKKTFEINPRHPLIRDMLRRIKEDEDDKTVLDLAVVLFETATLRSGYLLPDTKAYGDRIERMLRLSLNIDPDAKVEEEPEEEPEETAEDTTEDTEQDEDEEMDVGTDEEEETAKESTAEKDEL

## OmpA outer membrane protein of E. coli AIEC strain LF82 (from UniProt P0A910 22-346) (ligand)
  invasion level of the LF82-ΔompA mutant on IEC pretreated with LF82 OMVs, relative to strain LF82 taken as 100%: 85.2%
  residual invasion level of the LF82-ΔompA mutant in Intestine-407 cells compared to wild-type strain LF82 taken as 100%: 56.3%
